In the supplement of paper PMC9170038:

System: MS2 coat protein
Assay: apparent KD of MS2 coat protein; designed switch direction (-1 OFF switch, 1 ON switch): -1; higher = weaker reporter binding
How it was run: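 Transcription of designed RNA switches on Illumina chips was done by stalled E. coli RNA polymerase. SNAP-549-labelled MS2 coat protein was then titrated in doubling steps from 0.7 or 1.5 nM to 3 µM, with steps of 0.8–1.5 h at the lowest and 10–20 min at the highest concentration. The per-design median over clusters of curve-fitted normalised fluorescence is reported as apparent KD.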

[1] = Eterna round: R95, input ligand: microRNA oligo, concentration not stated
[2] = input ligand: microRNA oligo, concentration not stated
[3] = Eterna round: R95, input ligand: FMN 200 uM
[4] = Eterna round: R95, input ligand: none

Sequence	apparent KD of MS2 coat protein [1] [nM]	apparent KD of MS2 coat protein (input ligand: FMN 200 uM) [nM]	apparent KD of MS2 coat protein (input ligand: none) [nM]	also measured
CAGGAUAGAGGAUAUACAUAGAUACAGAUUCAUGUAAUCCUACAUGAGGAUCACCCAUGUAGAAGGCUAUCCUG [Fiskers Ex 2 - 16] (puzzle: Exclusion 2)	15.4	–	–	–
CAGGAUAGAGGAUAUACAUAGAUACAGAUUCGUGUGAUCCUACAUGAGGAUCACCCAUGUAGAAGGCUAUCCUG [Fiskers Ex 2 - 23] (Eterna round: R96, puzzle: Exclusion 2)	–	82	587	apparent KD of MS2 coat protein [2]: 392 nM
CAGGAUAGAGGAUAUACAUAGAUACAGAUUCGUGUGAUCCUACAUGAGGAUCACCCAUGUAGAAGGCUAUCCUG [Fiskers Ex 2 - 23] (puzzle: Exclusion 2)	210	–	–	–
CAGGGUAGAGGAUAUACGUAGGUACAGAUCCGUGUGAUCCUACAUGAGGAUCACCCAUGUAGAAGGCUAGCCUG [LRO-Excl2-06] (puzzle: Exclusion 2)	332	–	–	–
CAGGGUAGAGGAUAUACGUAGGUACAGAUCUGUGUGAUCCUACAUGAGGAUCACCCAUGUAGAAGGCUAGCCUG [LRO-Excl2-07] (puzzle: Exclusion 2)	305	–	–	–
CAGGUCUGAAAGGAUAUCCACGCCUGCGGGCCAGGAGAAGGUUCGACUUGAGGAUCACCCAAGUGCCGAGUCCA [Ervezaar] (Eterna round: R97, puzzle: Exclusion 6)	–	33.2	20.6	–
CAGGUGUUAGGAUAUCGGAGAUCGAGACCGACGGGAUGAGCCGAGAAGGAACAUGAGGAUCACCCAUGUAGGUG [JR_Exclu4_Sub034] (Eterna round: R96, puzzle: Exclusion 4)	–	–	–	apparent KD of MS2 coat protein [2]: 304 nM
CAGGUGUUAGGAUAUCGGAGAUCGAGACCGACGGGAUGAGCCGAGAAGGAACAUGAGGAUCACCCAUGUAGGUG [JR_Exclu4_Sub034] (puzzle: Exclusion 4)	400	–	–	apparent KD of MS2 coat protein [3]: 166 nM; apparent KD of MS2 coat protein [4]: 414 nM
CAGUACUGAGGAUAUACAUGAGGAUCACCCAUGUCCCAAAAGUAGGAUACUACUAUUAGUAGAAGGCAGUACUG [Fiskers Ex 3 828 mod 25] (Eterna round: R96, puzzle: Exclusion 3)	–	498	46.1	apparent KD of MS2 coat protein [2]: 43.2 nM
CAGUACUGAGGAUAUACAUGAGGAUCACCCAUGUCCCAAAAGUAGGAUACUACUAUUAGUAGAAGGCAGUACUG [Fiskers Ex 3 828 mod 25] (puzzle: Exclusion 3)	38.9	–	–	–
CAGUACUGAGGAUAUACAUGAGGAUCACCCAUGUCUUAAAAGUAGGAUACUACUAUUAGUAGAAGGCAGUACUG [Fiskers Ex 3 828 mod 24] (Eterna round: R96, puzzle: Exclusion 3)	–	38.5	17	apparent KD of MS2 coat protein [2]: 12.3 nM
CAGUACUGAGGAUAUACAUGAGGAUCACCCAUGUCUUAAAAGUAGGAUACUACUAUUAGUAGAAGGCAGUACUG [Fiskers Ex 3 828 mod 24] (puzzle: Exclusion 3)	12.6	–	–	–
CAGUACUGAGGAUAUACAUGAGGAUCACCCAUGUGAAAAAGCUACGAAAGUAGCAAAUGUAGAAGGCAGUACUG [Ex3: 806] (Eterna round: R96, puzzle: Exclusion 3)	–	–	–	apparent KD of MS2 coat protein [2]: 29.9 nM
CAGUACUGAGGAUAUACAUGAGGAUCACCCAUGUGAUCUGGUGCACGCGUACGUGUACGUAGAAGGCAGUACUG [JL 3.27 m4] (Eterna round: R97, puzzle: Exclusion 3)	–	1280	121	–
CAGUACUGAGGAUAUACAUGAGGAUCACCCAUGUGUCCCUGCUAGGAAACUAGCAAAAGUAGAAGGCAGUACUG [Fiskers Ex 3 828 mod 3] (puzzle: Exclusion 3)	21.3	–	–	apparent KD of MS2 coat protein [3]: 298 nM; apparent KD of MS2 coat protein [4]: 21.2 nM
CAGUACUGAGGAUAUACAUGAGGAUCACCCAUGUGUCCUAGCUAGGAUACUAGCAUUAGUAGAAGGCAGUACUG [Fiskers Ex 3 828 mod 7] (puzzle: Exclusion 3)	19.8	–	–	–
CAGUACUGAGGAUAUACAUGAGGAUCACCCAUGUGUCUAAAGUAGGAUACUACUAUUAGUAGAAGGCAGUACUG [Fiskers Ex 3 828 mod 20] (puzzle: Exclusion 3)	11.3	–	–	–
CAGUACUGAGGAUAUACAUGAGGAUCACCCAUGUGUUCCAGCUAGGAGACUAGCAUAUGUAGAAGGCAGUACUG [jl-ex3-4.03 salish99 mod] (Eterna round: R97, puzzle: Exclusion 3)	–	338	326	–
CAGUACUGAGGAUAUACAUGAGGAUCACCCAUGUUCCAAGGCUAGGAAACUAGCAAAAGUAGAAGGCAGUACUG [828 mod 2 m3] (Eterna round: R97, puzzle: Exclusion 3)	–	472	24.5	–
CAGUAGGCAGGAUAUACAUGAGGAUCACCCAUGUGAUUUAGUGCACGCGUACGUGUACGUAGAAGGGCCUACUG [JL 3.27 m7] (Eterna round: R97, puzzle: Exclusion 3)	–	91.8	17.9	–
CAUACACAUGAGGAUCACCCAUGUGAGGAUAUGCGUACGUUGUCAGUAGGCGACGUGCGCAGAAGGCGCGUGUU [Mat - Mod of JL D90] (puzzle: Exclusion 1)	46.3	–	–	–
CAUACACAUGAGGAUCACCCAUGUGAGGAUAUGCGUACGUUGUCCGUAGGCGACGUGCGCAGAAGGCGCAAGGU [JL-ex1-3.17 Eli mod] (puzzle: Exclusion 1)	50.4	–	–	–
CAUACAGUAGUUAGGAUAUUGCAACGUAUACGGAUCGAGAAGGGACAUGAGGAUCACCCAUGUAGAUUGUAAAG [EX-4 Malc #9] (puzzle: Brourd's mod of Exclusion 4)	34	–	–	–
CAUACUCAAGUCAGGAUAUAGACUCGGAUACGGAUCUAGAAGGGACAUGAGGAUCACCCAUGUAGAGAGUAAAG [EX-4 Malc #26] (puzzle: Brourd's mod of Exclusion 4)	28.1	–	–	apparent KD of MS2 coat protein [3]: 60.9 nM; apparent KD of MS2 coat protein [4]: 25 nM
CAUACUCAAGUGAGGAUAUUGUCUCGGAUACGAAACAAGAAGGCACAUGAGGAUCACCCAUGUAGAGAGUAAAG [EX-4 Malc #30] (puzzle: Brourd's mod of Exclusion 4)	25.1	–	–	apparent KD of MS2 coat protein [3]: 136 nM; apparent KD of MS2 coat protein [4]: 25.6 nM
CAUGAGGUAGGAUAUACGAUAAUAUAGGGUAGAUAUAUAACACAUGAGGAUCACCCAUGUAGAAGGACCAGUAG [Mat - Exclusion 2 - Mod of my Tesla design - D67] (puzzle: Exclusion 2)	29.8	–	–	–
